Legend:
[1] = biological target: biotinylated maltose binding protein (MBP-AviTag fusion, Avidity, LLC) [MBP: P0AEX9]; assay: SPR (BIAcoreX), biotinylated MBP-AviTag as immobilised ligand
[2] = biological target: biotinylated maltose binding protein (MBP-AviTag fusion, Avidity, LLC) [MBP: P0AEX9]; assay: affinity column, elution with 5 mM d-biotin
[3] = biological target: biotinylated maltose binding protein (MBP-AviTag fusion, Avidity, LLC) [MBP: P0AEX9]; assay: SPR, biotinylated MBP row of Table 2; footnote: value determined by the surface plasmon resonance method described in Qureshi and Wong (2002)

Kd [1] [nM]	koff [1] [s⁻¹]	kon [1] [M⁻¹ s⁻¹]	recovery from affinity column [2] [%]	kon [3] [M⁻¹ s⁻¹]	Substance
11.5	0.00265	230000	90	–	streptavidin mutein SBPM18 (S27A, G48T) (designed binder)
–	–	–	–	5.13e+06	wild-type streptavidin (from UniProt P22629 25-183)
